Among the data in patent US20190382503A1 (published 2019) are EC50 values, retold here.

The target of one test is human CD137 on cells (UniProt Q07011 24-255). Nature of the test: FACS binding CHO-K1/human CD137 cells. (A flow cytometer gives signals particle by particle.)
For another test, the target named is T1, cynomolgus 5T4 on cells (cynomolgus macaque, UniProt Q4R8Y9 35-420).
T1 chain: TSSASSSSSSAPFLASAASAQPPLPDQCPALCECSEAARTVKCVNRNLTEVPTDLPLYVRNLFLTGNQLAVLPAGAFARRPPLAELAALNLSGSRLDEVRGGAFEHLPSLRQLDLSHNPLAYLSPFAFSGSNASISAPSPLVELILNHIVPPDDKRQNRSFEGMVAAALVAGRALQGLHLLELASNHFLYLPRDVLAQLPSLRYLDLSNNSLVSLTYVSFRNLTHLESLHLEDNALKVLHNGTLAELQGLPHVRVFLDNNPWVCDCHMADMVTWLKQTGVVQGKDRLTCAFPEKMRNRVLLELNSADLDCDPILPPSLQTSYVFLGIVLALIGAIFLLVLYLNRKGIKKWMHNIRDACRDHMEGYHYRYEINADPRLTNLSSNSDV
The test is described as follows: FACS binding CHO-K1/cynomolgus 5T4 cells.

The target in a further test is T2, human 5T4 on cells (UniProt Q13641 32-420).
T2 chain: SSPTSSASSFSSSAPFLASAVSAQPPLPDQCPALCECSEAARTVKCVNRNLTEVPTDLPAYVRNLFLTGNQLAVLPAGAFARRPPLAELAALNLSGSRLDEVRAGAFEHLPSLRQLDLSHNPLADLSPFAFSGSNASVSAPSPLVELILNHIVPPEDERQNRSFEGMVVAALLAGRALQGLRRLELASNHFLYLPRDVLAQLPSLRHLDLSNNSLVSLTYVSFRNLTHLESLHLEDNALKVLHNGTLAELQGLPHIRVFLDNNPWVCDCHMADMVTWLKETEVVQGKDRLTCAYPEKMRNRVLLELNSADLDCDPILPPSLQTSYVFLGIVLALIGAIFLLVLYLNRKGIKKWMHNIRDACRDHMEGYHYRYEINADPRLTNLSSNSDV
The test is described as follows: FACS binding CT26 human 5T4 cells; CT26 cells.

human CD137 on cells, sequence (Q07011 24-255): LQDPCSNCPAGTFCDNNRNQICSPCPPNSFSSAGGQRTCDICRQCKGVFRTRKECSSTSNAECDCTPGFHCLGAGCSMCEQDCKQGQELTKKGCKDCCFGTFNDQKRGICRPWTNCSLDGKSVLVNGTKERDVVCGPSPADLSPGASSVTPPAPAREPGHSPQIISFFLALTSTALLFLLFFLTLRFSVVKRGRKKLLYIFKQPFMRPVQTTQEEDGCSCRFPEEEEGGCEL

B1: ALG.APV-004 (bispecific antibody)
chain 1: EVQLLESGGGLVQPGGSLRLSCAASGFTFSYGSMYWVRQAPGKGLEWVSSISSGSGSTYYADSVKGRFTISRDNSKNTLYLQMNSLRAEDTAVYYCARSSYYGSYYSIDYWGQGTLVTVSSEVQLLESGGGLVQPGGSLRLSCAASGFTFSSYAMSWVRQAPGKCLEWVSAISGSGGSTYYADSVKGRFTISRDNSKNTLYLQMNSLRAEDTAVYYCARYYGGYYSAWMDYWGQGTLVTVSSDIQMTQSPSSLSASVGDRVTITCRASQSISSYLNWYQQKPGKAPKLLIYAASSLQSGVPSRFSGSGSGTDFTLTISSLQPEDFATYYCQQTYGYLHTFGCGTRLEIK
chain 2: DIQMTQSPSSLSASVGDRVTITCRASQSISSYLNWYQQKPGKAPKLLIYAASSLQSGVPSRFSGSGSGTDFTLTISSLQPEDFATYYCQQYYDNLPTFGQGTKLEIK
Regarding B1, the concentration for a half-maximal effect (EC50) amounted to 0.39 nM with human CD137 on cells, 6.5 nM with cynomolgus 5T4 on cells and 1.5 nM with human 5T4 on cells.

By EC50 is commonly meant the midpoint of the concentration-response curve. Lower therefore signals greater potency.
